From patent publication US20160186156A1 (YEDA RESEARCH AND DEVELOPMENT, published 2016)

Molecular target: T1, primary hexavalent scaffold CohII-C-A-CBM-T-G-F
T1 chain: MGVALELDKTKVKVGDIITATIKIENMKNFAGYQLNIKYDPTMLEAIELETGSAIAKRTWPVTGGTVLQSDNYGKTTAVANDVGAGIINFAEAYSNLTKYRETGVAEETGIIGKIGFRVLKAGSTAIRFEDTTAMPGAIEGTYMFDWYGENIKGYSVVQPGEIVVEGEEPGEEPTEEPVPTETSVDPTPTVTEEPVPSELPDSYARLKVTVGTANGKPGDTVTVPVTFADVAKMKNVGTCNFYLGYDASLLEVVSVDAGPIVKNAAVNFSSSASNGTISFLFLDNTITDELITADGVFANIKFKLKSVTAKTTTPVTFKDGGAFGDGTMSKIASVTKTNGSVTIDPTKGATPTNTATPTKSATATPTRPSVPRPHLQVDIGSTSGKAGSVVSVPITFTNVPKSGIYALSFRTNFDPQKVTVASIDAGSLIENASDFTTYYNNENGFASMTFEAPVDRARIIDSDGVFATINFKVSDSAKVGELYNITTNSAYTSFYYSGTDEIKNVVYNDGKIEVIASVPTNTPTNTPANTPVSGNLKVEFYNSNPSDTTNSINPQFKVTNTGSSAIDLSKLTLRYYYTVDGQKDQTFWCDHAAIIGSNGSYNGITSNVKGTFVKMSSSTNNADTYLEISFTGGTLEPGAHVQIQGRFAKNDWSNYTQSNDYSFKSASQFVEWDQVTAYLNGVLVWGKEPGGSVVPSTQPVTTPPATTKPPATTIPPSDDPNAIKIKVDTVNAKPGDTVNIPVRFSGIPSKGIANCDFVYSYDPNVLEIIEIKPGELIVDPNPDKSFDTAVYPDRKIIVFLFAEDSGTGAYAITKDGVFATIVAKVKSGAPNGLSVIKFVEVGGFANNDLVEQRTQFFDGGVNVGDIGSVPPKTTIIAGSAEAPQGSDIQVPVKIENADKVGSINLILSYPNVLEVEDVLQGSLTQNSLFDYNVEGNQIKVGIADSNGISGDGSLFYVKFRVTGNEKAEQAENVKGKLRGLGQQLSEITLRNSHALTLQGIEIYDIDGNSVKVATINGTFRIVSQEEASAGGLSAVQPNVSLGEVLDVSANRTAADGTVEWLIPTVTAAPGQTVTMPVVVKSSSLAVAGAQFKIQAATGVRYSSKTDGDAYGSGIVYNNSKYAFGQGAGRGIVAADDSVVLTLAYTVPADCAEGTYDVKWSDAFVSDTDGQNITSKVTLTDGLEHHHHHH
Assay: cell-based or functional assay

B1: adaptor scaffold CBM-A-B-T-DockII (other)
chain: MANTPVSGNLKVEFYNSNPSDTTNSINPQFKVTNTGSSAIDLSKLTLRYYYTVDGQKDQTFWCDHAAIIGSNGSYNGITSNVKGTFVKMSSSTNNADTYLEISFTGGTLEPGAHVQIQGRFAKNDWSNYTQSNDYSFKSASQFVEWDQVTAYLNGVLVWGKEPGGSVVPSTQPVTTPPATTKPPATTKPPATTIPPSGSDLQVDIGSTSGKAGSVVSVPITFTNVPKSGIYALSFRTNFDPQKVTVASIDAGSLIENASDFTTYYNNENGFASMTFEAPVDRARIIDSDGVFATINFKVSDSAKVGELYNITTNSAYTSFYYSGTDEIKNVVYNDGKIEVIASPTPTQSATPTVTPSATATPTQSATPTVTPSSPGNKMKIQIGDVKANQGDTVIVPITFNEVPVMGVNNCNFTLAYDKNIMEFISADAGDIVTLPMANYSYNMPSDGLVKFLYNDQAQGAMSIKEDGTFANVKFKIKQSAAFGKYSVGIKAIGSISALSNSKLIPIESIFKDGSITVTNTPTNTISVTPTNNSTPTNNSTPKPNPLSDGVVVEIGKVTGSVGTTVEIPVYFRGVPSKGIANCDFVFRYDPNVLEIIGIDPGDIIVDPNPTKSFDTAIYPDRKIIVFLFAEDSGTGAYAITKDGVFAKIRATVKSSAPGYITFDEVGGFADNDLVEQKVSFIDGGVNVGNATRSTNKPVIEGYKVSGYILPDFSFDATVAPLVKAGFKVEIVGTELYAVTDANGYFEITGVPANASGYTLKISRATYLDRVIANVVVTGDTSVSTSQAPIMMWVGDIVKDNSINLLDVAEVIRCFNATKGSANYVEELDINRNGAINMQDIMIVHKHFGATSSDYDAQLEHHHHHH
- wheat straw degradation, reducing sugars released after 48 hours incubation at 50 C (FIG. 5, Column 7 against Columns 4 and 6): ~2 fold
